Test results published in US20250157661.

Test system: Indicator molecule containing the cleavable sequence GPQGIFGQ with a terminal biotin group connected via a polyethylene glycol spacer/linker (intact, Examples 1-6)

Chain of Active MMP-9 (Alere San Diego) (chain, as listed by the source): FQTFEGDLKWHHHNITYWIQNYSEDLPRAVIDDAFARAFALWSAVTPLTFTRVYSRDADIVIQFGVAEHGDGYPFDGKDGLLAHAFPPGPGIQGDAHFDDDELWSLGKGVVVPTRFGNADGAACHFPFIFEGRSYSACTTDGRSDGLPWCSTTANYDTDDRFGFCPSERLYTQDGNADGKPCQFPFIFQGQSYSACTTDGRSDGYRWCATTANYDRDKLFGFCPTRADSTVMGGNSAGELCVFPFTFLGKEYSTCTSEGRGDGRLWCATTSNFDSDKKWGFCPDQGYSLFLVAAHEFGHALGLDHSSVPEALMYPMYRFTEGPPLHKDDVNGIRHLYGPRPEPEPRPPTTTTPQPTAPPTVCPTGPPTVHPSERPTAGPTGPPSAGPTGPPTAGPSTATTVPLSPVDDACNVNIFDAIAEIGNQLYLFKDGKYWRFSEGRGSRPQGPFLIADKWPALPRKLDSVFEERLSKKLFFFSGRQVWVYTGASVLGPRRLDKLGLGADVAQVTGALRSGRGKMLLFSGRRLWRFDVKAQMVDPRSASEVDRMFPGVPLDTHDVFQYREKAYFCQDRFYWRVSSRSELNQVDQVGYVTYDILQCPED
Chain of MMP2 (Enzo) (chain, as listed by the source): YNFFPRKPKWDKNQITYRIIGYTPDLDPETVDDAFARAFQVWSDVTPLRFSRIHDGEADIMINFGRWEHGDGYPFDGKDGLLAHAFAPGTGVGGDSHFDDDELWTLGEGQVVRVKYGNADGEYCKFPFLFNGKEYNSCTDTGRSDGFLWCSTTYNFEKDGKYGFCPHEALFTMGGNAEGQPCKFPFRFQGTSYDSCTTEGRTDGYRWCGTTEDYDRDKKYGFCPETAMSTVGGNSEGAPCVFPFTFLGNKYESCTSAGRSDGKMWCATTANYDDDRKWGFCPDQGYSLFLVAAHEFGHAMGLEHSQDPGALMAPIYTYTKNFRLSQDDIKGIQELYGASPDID
Chain of MMP8 (Enzo) (chain, as listed by the source): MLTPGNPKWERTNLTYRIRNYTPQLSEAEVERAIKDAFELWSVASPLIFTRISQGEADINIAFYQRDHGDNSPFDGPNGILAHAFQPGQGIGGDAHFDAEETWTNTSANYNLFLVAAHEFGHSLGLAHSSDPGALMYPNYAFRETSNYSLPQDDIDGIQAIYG
Chain of MMP10 (Enzo) (chain, as listed by the source): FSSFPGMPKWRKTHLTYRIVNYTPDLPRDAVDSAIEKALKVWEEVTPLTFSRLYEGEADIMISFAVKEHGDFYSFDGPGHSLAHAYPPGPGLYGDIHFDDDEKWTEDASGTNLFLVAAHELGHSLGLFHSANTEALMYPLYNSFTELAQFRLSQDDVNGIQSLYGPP
Chain of MMP9 (Enzo) (chain, as listed by the source): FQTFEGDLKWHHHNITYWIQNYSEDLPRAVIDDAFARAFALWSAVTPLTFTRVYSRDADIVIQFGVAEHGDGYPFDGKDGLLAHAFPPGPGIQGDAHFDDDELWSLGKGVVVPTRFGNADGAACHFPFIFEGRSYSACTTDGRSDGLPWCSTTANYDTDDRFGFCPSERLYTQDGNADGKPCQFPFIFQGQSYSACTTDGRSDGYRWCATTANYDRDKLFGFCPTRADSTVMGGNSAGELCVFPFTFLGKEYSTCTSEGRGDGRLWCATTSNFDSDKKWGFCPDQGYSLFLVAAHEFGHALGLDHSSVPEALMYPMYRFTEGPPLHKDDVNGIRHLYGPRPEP
Chain of MMP3 (Enzo) (chain, as listed by the source): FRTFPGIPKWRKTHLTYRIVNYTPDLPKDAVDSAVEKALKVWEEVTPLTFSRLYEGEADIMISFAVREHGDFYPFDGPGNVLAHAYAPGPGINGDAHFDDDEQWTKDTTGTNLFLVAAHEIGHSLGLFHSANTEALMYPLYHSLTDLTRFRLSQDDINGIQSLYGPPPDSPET

MMP3 (Enzo)
Reader value (lateral flow, CF1522-gold) with MMP at 0.5 ug/ml: 336 reader units

MMP10 (Enzo)
Reader value (lateral flow, CF1522-gold) with MMP at 0.5 ug/ml: 444 reader units

MMP9 (Enzo)
Reader value (lateral flow, CF1522-gold) with MMP at 0.5 ug/ml: 3840 reader units

MMP8 (Enzo)
Reader value (lateral flow, CF1522-gold) with MMP at 0.5 ug/ml: 1140 reader units

Active MMP-9 (Alere San Diego)
OD405 (ELISA, streptavidin plate, CF1522-AP) at 0.39 ng/ml MMP9: 0.14 OD405
OD405 (ELISA, streptavidin plate, CF1522-AP) at 0.78 ng/ml MMP9: 0.14 OD405
OD405 (ELISA, streptavidin plate, CF1522-AP) at 1.56 ng/ml MMP9: 0.14 OD405
OD405 (ELISA, streptavidin plate, CF1522-AP) at 3.13 ng/ml MMP9: 0.13 OD405
OD405 (ELISA, streptavidin plate, CF1522-AP) at 6.25 ng/ml MMP9: 0.17 OD405
OD405 (ELISA, streptavidin plate, CF1522-AP) at 12.50 ng/ml MMP9: 0.18 OD405
OD405 (ELISA, streptavidin plate, CF1522-AP) at 25.00 ng/ml MMP9: 0.27 OD405
OD405 (ELISA, streptavidin plate, CF1522-AP) at 50.00 ng/ml MMP9: 0.5 OD405
reader value (lateral flow, CF1522-gold at the polystreptavidin test line) at 0.9765625 ng/ml MMP9: 338 reader units
reader value (lateral flow, CF1522-gold at the polystreptavidin test line) at 1.953125 ng/ml MMP9: 343 reader units
reader value (lateral flow, CF1522-gold at the polystreptavidin test line) at 3.90625 ng/ml MMP9: 413 reader units
reader value (lateral flow, CF1522-gold at the polystreptavidin test line) at 7.8125 ng/ml MMP9: 524 reader units
reader value (lateral flow, CF1522-gold at the polystreptavidin test line) at 15.625 ng/ml MMP9: 882 reader units
reader value (lateral flow, CF1522-gold at the polystreptavidin test line) at 31.25 ng/ml MMP9: 2030 reader units
reader value (lateral flow, CF1522-gold at the polystreptavidin test line) at 62.5 ng/ml MMP9: 3830 reader units
reader value (lateral flow, CF1522-gold at the polystreptavidin test line) at 125 ng/ml MMP9: 5580 reader units
reader value (lateral flow, CF1522-gold at the polystreptavidin test line) at 250 ng/ml MMP9: 6220 reader units
reader value (lateral flow, CF1522-gold at the polystreptavidin test line) at 500 ng/ml MMP9: 6730 reader units
reader value (lateral flow, CF1522-gold at the polystreptavidin test line) at 1000 ng/ml MMP9: 6770 reader units

MMP2 (Enzo)
Reader value (lateral flow, CF1522-gold) with MMP at 0.5 ug/ml: 1610 reader units
